Source: US20160097044A1, “Antimicrobial Enzyme Fusions Reduce Resistance and Kill Intracellular Staphylococcus aureus” (The United States of America, as Represented by the …, priority 2014, published 2016)
“Also recorded” adds a separate entry of the source.

Assays:
[1] = tested on: intracellular S. aureus strain UAMS-1 in murine calvaria; assay: Ex vivo neonatal mouse calvaria intracellular eradication; format: cell-based
Description: Neonatal mouse whole calvaria were treated for 4 hours with chimeric peptidoglycan hydrolases or buffer alone, 24 hours post inoculation with GFP-expressing S. aureus. Calvaria were embedded in freeze media, sectioned, and subjected to fluorescence imaging. The image shown is a representative figure for triplicate sections of three separate calvaria. FIG. 8b depicts fluorescence intensity from these sections measured in ImageJ and defined as arbitrary fluorescence standardized to the untreated control. Error bars represent SEM of four replicate experiments. FIG. 8c depicts ex-vivo intracellular S. aureus eradication. Infected calvaria were homogenized and CFU were counted post treatment. Error bars represent SEM. FIG. 8d depicts a murine model of staphylococcal osteomyelitis. C57BL/6J mice were anesthetized and their femurs were surgically exposed. A trough was drilled through the bone cortex and the damaged bone sites were inoculated with 1×10^3 CFU S. aureus in agarose beads. After 24 hours, mice were treated (i.m. to site of infection) twice in a 24 h period with PBS or 5 mg/kg of triple fusion K-L or K-L-PTD1. The femurs were removed, homogenized, and plated to quantify the bacterial load. Bars indicate the average CFU recovered (N=6). […] Asterisks represent statistical significance as determined by one-way ANOVA followed by Tukey's posthoc test.
To examine the intracellular uptake and eradication in murine osteoblast-containing tissue samples, both ex vivo calvaria (skull cap), and in vivo femur injury models were tested. Calvaria were isolated from neonatal mice and infected with UAMS-1 strain of S. aureus (1×10^6 bacteria/calvaria) for 2 h at 37° C. in osteoblast growth medium in the absence of antibiotics. Following 3× washes with PBS, calvaria were exposed to 50 μg/ml of gentamicin for 15 min to kill extracellular bacteria and further cultured in gentamicin containing osteoblast growth media. After 24 h later, calvaria were treated with peptidoglycan hydrolases (5 μg/ml) or gentamicin only control for 2 h. Lysis buffer containing 0.05% trypsin and 0.25% Triton X-100 was used to homogenize the calvaria, the homogenates were quantitatively plated on LB agar plates, and the CFU were enumerated after 24 h. The data represents triplicate determinants of two separate experiments.
Calvaria were isolated, and infected as described above using GFP-tagged UAMS-1 strain of S. aureus. Two hours post-infection, calvaria were washed with PBS followed by a 15 minutes treatment with 50 μg/ml gentamicin to kill extracellular bacteria. 24 hours post-infection, calvaria were treated with 5 μg/ml peptidoglycan hydrolases or gentamicin only control for two hours and embedded in Tissue-Tek O.C.T compound (Sakura, Torrance, Calif.). […]

S. aureus Newbould 305 = assay: Turbidity reduction assay; format: cell-based; settings: 1 μM enzyme, cells at OD600nm 1.0, FIG. 6a
Description: (§1) FIG. 6a depicts the specific activity of peptidoglycan hydrolase fusion constructs in vitro in a turbidity reduction assay with S. aureus Newbould 305 resuspended in lysis buffer to an OD600nm of 1.0 and treated with 1 μM final concentrations of each peptidoglycan hydrolase. The maximum specific activity for three experiments are represented as an average with SEM error bars. FIG. 6b depicts the bacterial burden in mice with mastitis treated with recombinant peptidoglycan hydrolases. Colony Forming Units (CFUs) from infected murine mammary glands following a single treatment with 50 μl of 25 μM peptidoglycan hydrolase (1.25 nmol). Each data point represents the average of duplicate bacterial platings. The horizontal bars represent the average CFU/mg for each group. FIG. 6c illustrates the TNFα response in mice with mastitis that were treated with peptidoglycan hydrolases. Data represents a minimum of 7 measurements in duplicate. Log TNFα was used for statistical analysis. Single asterisks indicate a significant difference from buffer control (p<0.05); double asterisks indicate a significant difference from the parental enzyme (p<0.05).
FIG. 7 depicts a turbidity reduction assay of select peptidoglycan hydrolases against S. aureus Newbould 305. Bacterial cells were resuspended in lysis buffer to an OD600nm of 1.0 and lysed with 1 μM final concentrations of each peptidoglycan hydrolase. The maximum rate of ΔOD of three experiments are represented as an average with error bars representing SEM. Double asterisks indicate significant difference from parental. Mean comparisons were performed with one way ANOVA (P=3.3×10^−5) with t test post hoc analysis with Sidák adjusted alpha (p<0.01).

TNFα = assay: Murine model of mastitis, TNFα response; format: in vivo, C57BL6/SJL mice; settings: single 1.25 nmoles intramammary infusion, after challenge
Description: as §1, with “(p<0.05). […]” for “(p<0.05).”
Statistical analysis: The variables were analyzed as two-factor mixed models with Treatment as the factor and Mouse as random Blocks. […]

[2] = bovine, in vivo; cited from earlier work
[3] = tested on: post-treatment isolates of S. aureus ALR; assay: Resistance of isolates recovered from nares of treated rats (plate lysis, MIC); format: cell-based
Description: The Minimum Inhibitory Concentrations (MIC) of each protein for multiple S. aureus strains was determined as previously described (Jones et al. 1985. In: Manual of Clinical Microbiology, Eds. Balows et al. American Society of Microbiology, Washington D.C., pp. 972-977) with the following modifications. Enzymes were serially diluted two fold across a 96 well plate, such that after dilution, 50 μl of the enzyme solution in 300 mM NaCl, 50 mM NaH2PO4, 30% glycerol pH 7.5, remained in each well. To each well was added 50 μl of TSB and 100 μl of S. aureus Newman in TSB (diluted to 5×10^6 cells/ml). The plates were incubated 20 h at 37° C. and read with a 96 well plate reader. MIC determination values were reported as the median of ≧4 replicates (Table 1).

Question: For “K-L: both LysK lytic domains fused to the N-terminus of lysostaphin; SEQ ID NO:5, protein SEQ ID NO:6”, which “live bacteria (CFU) recovered from calvaria” value ([1]; 5 μg/ml for 2 h, homogenized calvaria) is on record?
Answer: able to reduce the number of live bacteria recovered from sectioned calvaria

Question: What about the “elimination of GFP-labeled intracellular S. aureus (fluorescence)” value ([1]; 5 μg/ml, 24 hours post-infection, sectioned calvaria) of the same molecule?
Answer: able to eliminate GFP-labeled intracellular S. aureus strain UAMS-1 from murine calvaria

Question: And the “turbidity reduction (in vitro lytic) activity” value (S. aureus Newbould 305)?
Answer: slightly more effective at lysing S. aureus strain Newbould 305 than lysostaphin

Question: For “L: 247 amino acid mature (secreted) lysostaphin, staphylolytic bacteriocin, C-terminal His6 tag; SEQ ID NO:1 [reference compound]”, which “reduction of TNFα concentration in the mammary tissue” value (TNFα) is on record?
Answer: > 6 fold

Question: And the “treatments after which specific antibodies were detectable” value [2]?
Answer: 18-21 treatments

B1: L-K: LysK lytic domains inserted between lysostaphin's M23 endopeptidase domain and SH3b cell wall binding domain; SEQ ID NO:7, protein SEQ ID NO:8 (protein)
chain: MAATHEHSAQWLNNYKKGYGYGPYPLGINGGMHYGVDFFMNIGTPVKAISSGKIVEAGWSNYGGGNQIGLIENDGVHRQWYMHLSKYNVKVGDYVKAGQIIGWSGSTGYSTAPHLHFQRMVNSFSNSTAQDPMPFLKSAGYGKAGGTVTPTPNTGLDAKTQAEINKRLDAYAKGTVDSPYRVKKATSYDPSFGVMEAGAIDADGYYHAQCQDLITDYVLWLTDNKVRTWGNAKDQIKQSYGTGFKIHENKPSTVPKKGWIAVFTSGSYEQWGHIGIVYDGGNTSTFTILEQNWNGYANKKPTKRVDNYYGLTHFIEIPVKAGTTVKKETAKKSASKTPAPKKKATLKVSKNHINYTMDKRGKKPEGMVIHNDAGRSSGQQYENSLANAGYARYANGIAHYYGSEGYVWEAIDAKNQIAWHTGDGTGANSGNFRFAGIEVCQSMSASDAQFLKNEQAVFQFTAEKFKEWGLTPNRKTVRLHMEFVPTACPHRSMVLHTGFNPVTQGRPSQAIMNKLKDYFIKQIKNYMDKGTSSSTVVKDGKTSSASLDTVTPTPNTGWKTNKYGTLYKSESASFTPNTDIITRTTGPFRSMPQSGVLKAGQTIHYDEVMKQDGHVWVGYTGNSGQRIYLPVRTWNKSTNTLGVLWGTIKLEHHHHHH
modifications: Staphylococcus simulans & Phage K
Question: For B1, which “MIC of 8 post-treatment isolates” value ([3]; isolates from rats treated with triple fusion L-K, N=32) is on record?
Answer: 7.0 ± 2.4 µg/mL

Question: And the “resistance of colonies recovered from nares of treated rats” value ([3]; plate lysis analysis, N=22 colonies)?
Answer: not more resistant than the parental strain; also recorded: no in vivo resistance development detected
